The results in this text go back to paper PMC6625990, “Structural underpinnings of Ric8A function as a G-protein α-subunit chaperone and guanine-nucleotide exchange factor” (Nature Communications, 2019).

Assay [1] concerns the target full-length Avi-tagged Gαt, P04695. The assay can be described thus: BLI (steady-state binding curve). The note with it: chain shown with the change; Avi-tagged Gαt coupled to a streptavidin biosensor; parent: 24 nM.
Assay [2] has the same target. The assay can be described thus: BLI (steady-state). As to conditions: chain shown with the change.

Some results are limits rather than exact numbers.

In general, Kd refers to the concentration at which binding is half-saturated.

full-length Avi-tagged Gαt, P04695, sequence (P04695 whole entry): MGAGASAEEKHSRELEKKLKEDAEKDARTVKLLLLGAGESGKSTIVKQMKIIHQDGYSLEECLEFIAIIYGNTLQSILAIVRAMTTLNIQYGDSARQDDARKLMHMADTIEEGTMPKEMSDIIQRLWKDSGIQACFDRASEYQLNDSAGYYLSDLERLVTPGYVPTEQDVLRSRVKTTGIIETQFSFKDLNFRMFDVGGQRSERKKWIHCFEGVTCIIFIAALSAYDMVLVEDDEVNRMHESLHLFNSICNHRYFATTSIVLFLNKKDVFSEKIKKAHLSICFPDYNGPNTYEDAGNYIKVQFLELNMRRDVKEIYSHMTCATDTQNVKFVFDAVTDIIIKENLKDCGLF

B1: bovine Ric8A1–492, Q5E9J8 F169R (protein)
chain: MEPRAVADALETGEEDVVMEALRAYNRENSQSFTFDDAQQEDRKRLAKLLVSVLEQGLPPSRRVIWLQSIRILSRDRSCLDSFTSRRSLQALACYAGISASQGSVPEPLNMDVVLESLKCLCNLVLSSPVAQALAAEAGLVVRLAERVGLCRQSSFPHDVQFFDLRLLRLLTALRTDVRQQLFQELQGVRLLTRALELTLGMTEGERHPELLPPQETERAMEILKVLFNITFDSIKREVDEEDAALYRHLGTLLRHCVMLAAAGDRTEELHGHAVNLLGNLPVKCLDVLLTLEPHEGSLEFLGVNMDVIRVLLSFMEKRLHQTHRLKESVAPVLSVLTECARMHRPARKFLKAQVLPPLRDVRTRPEVGELLRNKLVRLMTHLDTDVKRVAAEFLFVLCSESVPRFIKYTGYGNAAGLLAARGLMAGGRPEGQYSEDEDTDTDEYKEAKASINPVTGRVEEKPPNPMEGMTEEQKEHEAMKLVNMFDKLSRH
For the molecule B1, the Kd in assay [1] was determined as 1700 nM; in assay [2], 1800 nM.

B2: bovine Ric8A1–492, Q5E9J8 A173W (protein)
chain: MEPRAVADALETGEEDVVMEALRAYNRENSQSFTFDDAQQEDRKRLAKLLVSVLEQGLPPSRRVIWLQSIRILSRDRSCLDSFTSRRSLQALACYAGISASQGSVPEPLNMDVVLESLKCLCNLVLSSPVAQALAAEAGLVVRLAERVGLCRQSSFPHDVQFFDLRLLFLLTWLRTDVRQQLFQELQGVRLLTRALELTLGMTEGERHPELLPPQETERAMEILKVLFNITFDSIKREVDEEDAALYRHLGTLLRHCVMLAAAGDRTEELHGHAVNLLGNLPVKCLDVLLTLEPHEGSLEFLGVNMDVIRVLLSFMEKRLHQTHRLKESVAPVLSVLTECARMHRPARKFLKAQVLPPLRDVRTRPEVGELLRNKLVRLMTHLDTDVKRVAAEFLFVLCSESVPRFIKYTGYGNAAGLLAARGLMAGGRPEGQYSEDEDTDTDEYKEAKASINPVTGRVEEKPPNPMEGMTEEQKEHEAMKLVNMFDKLSRH
As to B2, the Kd in assay [1] and in assay [2] was greater than 10000 nM throughout.
